These results are taken from paper doi:10.1101/2020.04.06.028423 (bioRxiv, 2020).

The target of the assay is T1, His-tagged VP35 IID (VP35 aa 215-340) (Ebola virus (EBOV), UniProt Q05127 215-340).
T1 sequence: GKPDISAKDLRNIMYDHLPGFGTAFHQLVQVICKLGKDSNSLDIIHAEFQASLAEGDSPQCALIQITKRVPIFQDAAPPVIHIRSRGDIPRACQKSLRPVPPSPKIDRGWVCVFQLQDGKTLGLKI
The assay is described as follows: pull-down.

B1: GST-NP(481-500) (domain or fragment)
chain: DDLVLFDLDEDDEDTKPVPN
Take B1: the binding result is on record as “binds”.

B2: GST-NP(412-500) (domain or fragment)
chain: ASLPKTSGHYDDDDDIPFPGPINDDDNPGHQDDDPTDSQDTTIPDVVVDPDDGSYGEYQSYSENGMNAPDDLVLFDLDEDDEDTKPVPN
As to B2, the binding result was “binds”.

B3: GST-NP(481-494) (domain or fragment)
chain: DDLVLFDLDEDDED
On to B3, for which the binding result is reported as “binds”.
